Measured values: patent US20120190558A1

Biological target: endogenous KCNH2-1A of rat cortical neurons (rat) (UniProt O08962)
Test: cell-based or functional assay

In the case of “Isoform 3.1 of KCNH2 (human) (from UniProt Q12809 103-1159)”, the deactivation time constant (tau) of E-4031-sensitive tail current, slow component, at -100 mV of command potential is reported as 7.43 fold and the fold decrease in deactivation time constant (tau) of E-4031-sensitive tail current, fast component, at -100 mV of command potential is reported as 5.88 fold.
